The record followed here is the nanobody polyreactivity screen of Harvey et al. (2022).

The series in a line: yeast display, Sf9 membrane polyspecificity reagent, FACS + sequencing; frameworks hold sequencing errors. The method, boiled down:
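Nanobodies came from a synthetic yeast display library in Saccharomyces cerevisiae BJ5465, induced with galactose for 36–48 hours and stained for 1 hour at 4 °C with 10% biotinylated, detergent-solubilized Sf9 membrane reagent. Cells were enriched on streptavidin microbeads and then FACS-sorted, with low and high (top ~1%) gates set on anti-HA fluorescence for expression and streptavidin fluorescence for reagent binding. Each polyreactivity label reflects the gate a clone came from. Genes were amplified by colony PCR, sequenced by MiSeq 2 × 250 and filtered by CDR length.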
For “QVHLVESGGGLVQAGGSLRLSCAASGRTFDLNVMGWYRQAPGKERELVAAISFSGGSTYYADSVKGRFTISRDNAKNTVYLQMNSLKPEDTAVYYCSADEYSADSVPSWYDYWGQGTQVTVSS”, the “polyreactivity (PSR sort gate)” value was “high polyreactivity”.

On to “QVHLVESGGGLVQAGGSLRLSCAASGRTFGINAMGWNRQAPGKERELVAVISFGDGGTYYADSVKGRFTISRDNAKNTVYLQMNSLKPEDTAVYYCATDYQSTSVWGGHFVINPYDYWGQGTQVTVSS”, for which the “polyreactivity (PSR sort gate)” value was “low polyreactivity”.

For “QVHLVESGGGLVQAGGSLRLSCAASGRTFGWNVMGWYRQAPGKERELVAAISGSGGSTYYADSVKVRFTISRDNAKNTVYLQMNSLKPEDTAVYYCAALYGPGREYDYWGQGTQVTVSS”, the “polyreactivity (PSR sort gate)” value was “low polyreactivity”. Take “QVHLVESGGGLVQAGGSLRLSCAASGRTFKGYAMGWYRQAPGKERELVASINWSDGNTYYADSVKGRFTISRDNAKNTVYLQMNSLKPEDTAVYYCNVRRGDRFVRHDYWGQGTQVTVSS”: the “polyreactivity (PSR sort gate)” value is recorded as “low polyreactivity”. With “QVHLVESGGGLVQAGGSLRLSCAASGRTFKYNTMGWYRQAPGKERELVAVISRSGGRTYYADSVKGRFTISRDNAKNTVYFQMNSLKPEDTAVYYCAKGIPYSDPQSAYDDYWGQGTQVTVSS” the entry was “high polyreactivity”; with “QVHLVESGGGLVQAGGSLRLSCAASGRTFPYTAMGSYRQAPGKERELVAAISSGGSTNYADSVKGRFTISRDNAKNTVYLQMNSLKPEDTAVYYCATKYQRRPYRYYYWGQGTQVSVSS”, “low polyreactivity”.

“QVHLVESGGGLVQAGGSLRLSCAASGRTFRSYAMGWYRQAPGKERELVAAISWSGGSTYYADSVKGRFTISRDNAKNTVYLQMNSLKPEDTAVYYCAASYFYFPYTSDEGYWGQGTQVTVSS”: the “polyreactivity (PSR sort gate)” value is “high polyreactivity”. With “QVHLVESGGGLVQAGGSLRLSCAASGRTFYSYTMAWYRQAPGKERELVAAINRGGSTYYADSVKGRFTISRDKAKNTVYLQMNSLKEEDTAVYYFAVGYAHSSNRRYYYQKTHGYWGQGTQVTVSS” the entry was “low polyreactivity”. With “QVHLVESGGGLVQAGGSLRLSCAASGRTIKRYAMGWYRQAPGKERELVATISRSGSSTYYADSVKGRFTISRANAMNTVYLQMNSLKPEDTAVYYCNAYVPDIWVNGYDSWGQGTQVTVSS” the entry was “high polyreactivity”; with “QVHLVESGGGLVQAGGSLRLSCAASGRTYDYYAMGWYRQAHGKERELVAAIRLISGNTYYADSVKGRFTISRDNAKNTVYLQMNSLKPEDTAVYYCARQGYVLYYYWGQGTQVTVSS”, “low polyreactivity”. For “QVHLVESGGGLVQAGGSLRLSCAASGSICNPYAMGWYRQAPGKEGELVAAINRGGTSTYYADSVKGRFTISRDNAKNNVYLQMNSLKPEDTAVYYCNADYPYYEDGDTVRDDYWGQGTQVTVSS”, the “polyreactivity (PSR sort gate)” value is given as “low polyreactivity”. In the case of “QVHLVESGGGLVQAGGSLRLSCAASGSIFGGYAMGWSRQAPGKERELVAAISYRGASTYYADSVKGRFTISRDNAKNTVYLQMNSLKPEDTAVYYCNADDRGSTYVDFDYWGQGTQVTVSS”, the “polyreactivity (PSR sort gate)” value is on record as “low polyreactivity”.

Take “QVHLVESGGGLVQAGGSLRLSCAASGSIFGNNAMGWYRQAPGKERELVAAISSGGSTNYADSVKGRFTISRDNAKNTVYLQMNSLKPEDTAFYYCAKHSWSRAFSWATRLHWRYDYWGQGTQVTVSS”: the “polyreactivity (PSR sort gate)” value is “low polyreactivity”. With “QVHLVESGGGLVQAGGSLRLSCAASGSIFGPYVMGWYRQAPGKEREFVAAIRGSGGSTYYADTVKGRFTISRDNAKNTVYLQMTSLKPEDTAVYYCNASLKYTLYYYWGQGTQVTVSS” the entry was “high polyreactivity”. With “QVHLVESGGGLVQAGGSLRLSCAASGSIFGYNTMGWYRQAPGKERELVAAISYSSGSTHYADSVKGRFTISRVNAKNTVYLQMNSLKPEDTAVYYSTSVRRWSFGYWGQGTQVTVSS” the entry was “low polyreactivity”; with “QVHLVESGGGLVQAGGSLRLSCAASGSIFPRNAMGWYRQAPGKERELVAAISSGGGRTYYADSVKGRFTISRDNAKNTVYLQMNSLKPVDTAVYYCAREVWGYRWLYPVYILDYWGQGTQVTVSS”, “high polyreactivity”. With “QVHLVESGGGLVQAGGSLRLSCAASGSIFQPYAIRWYRQAPGKERELVAAISSSGGSTTYADSVKGRFTISRDNAKNTVYLQMTSLKPEDTAVYYCAADSADDMGYWGQGTQVTVSS” the entry was “low polyreactivity”.

On to “QVHLVESGGGLVQAGGSLRLSCAASGSIFSLYAMGWYRQAPGKERELVAAITRSGAGTYYADSVKGRFTISRDNAKNTVYLQLNSLKPEDTAVYYCANRTKTPTGYVWGGYDYWGQGTQVTVSS”, for which the “polyreactivity (PSR sort gate)” value is listed as “high polyreactivity”. With “QVHLVESGGGLVQAGGSLRLSCAASGSIFSSNTMGWYRQATGKERELVAAISWSGGRTRYADSVKGRFTISRDNAKNTVYLQMNSLKPEDNAVYYCNAGTVASTLYDVRTHFDYWGQGTQVTVSS” the entry was “low polyreactivity”; with “QVHLVESGGGLVQAGGSLRLSCAASGSIFSVYTMGWYRQATGKEREFVPSIDWSAGSTNYADSVKGRFTISRDNAKNTVYFQRNSLKPEDTADDYCARAGSSWDTLYKYYLEHDYWGQGSQVTVSS”, “low polyreactivity”; with “QVHLVESGGGLVQAGGSLRLSCAASGSIFSYYAMGWYRQAPGKERELVAAISQSGGSTYYADSVKGRFTISRDNAKNTVYLQMNSLKPEDTAVNYCNAGRGTFKRYTALQYWGQGTQVTVSS”, “low polyreactivity”. In the case of “QVHLVESGGGLVQAGGSLRLSCAASGSIFSYYGMGWYRQAPGKERELVAAITRSTGSTYYADSVKGRFTISRDYAKNTVYLQMNSLKPEDTAVYYCATEYVVLWEFDYWGQGTQVTVSS”, the “polyreactivity (PSR sort gate)” value was “low polyreactivity”. As for “QVHLVESGGGLVQAGGSLRLSCAASGSIFTYYAMGWYRQAPGKERELVAAISSDGSTTYADSVKGRFTISRDNAKNTVYLQMNSLKPEDTAVYYCAASSYNGHGYWGQGTQVTVSS”, the “polyreactivity (PSR sort gate)” value is on record as “low polyreactivity”. With “QVHLVESGGGLVQAGGSLRLSCAASGSIFVHNAMGWYRQAPGKESELVAGISARGASTYYADSVKGRFTISRDNAKNTVYLQMKSLKPEDTAVYYCAADRIPGYRVYGFYYWGQGTQVTVSS” the entry was “low polyreactivity”; with “QVHLVESGGGLVQAGGSLRLSCAASGSIFVPYAMGWYRKAPGKERELVAAITYSDGCTYYADSVKGRFTMSRDNAKNTVYLQMNSLKPEDTAVYYCATYPQYYFRYDYWGQGTQVTVSS”, “high polyreactivity”.

For “QVHLVESGGGLVQAGGSLRLSCAASGSIFYIYAMGWYRQAPGKERELVAGITSGGGTYYADSVKGRFTISRDNAKNTVYLQMNSLKPEDTAVYYCAADYLYDYDYWGQGTQVTVSS”, the “polyreactivity (PSR sort gate)” value was “high polyreactivity”. With “QVHLVESGGGLVQAGGSLRLSCAASGSIFYWYAMGWYRQAPGKERELVAAITWSGGSTYYADSVKGRFTISRDNAKNTVDLQMNSLKPEDTAVYYCAALVYGYPRWSGKYDYWGQVTQVTVSS” the entry was “high polyreactivity”. As for “QVHLVESGGGLVQAGGSLRLSCAASGSIIIRNAMGWYRQAPGKERELVATITRSGSTYYADSVKGRFTISRDNAKNTVYLQMNSLKPEDTAVYYFAADWPNLVEYYYWGQGTQVTVSS”, the “polyreactivity (PSR sort gate)” value is “high polyreactivity”. With “QVHLVESGGGLVQAGGSLRLSCAASGSILSINGRGWSRQAPGKERELVATIDGSDGSTFYADSVKGRFTISRDNAKNTVYLQMNSLKPEDTAVYYCAAENFWQTKEYDYWGQGTQVTVSS” the entry was “low polyreactivity”; with “QVHLVESGGGLVQAGGSLRLSCAASGSNFYPYAMGWYRQEPGKERELVAAIRWRGDRTYYADSVKGRFTISRDNAKKTVYLQMNSLKPEDTGVYYCAADLSGWSTHGSWGQATQVTVSS”, “high polyreactivity”; with “QVHLVESGGGLVQAGGSLRLSCAASGSTFALYGMGWYRQAPGKERELVAASTWSGTGTYYADSVKGRFTISRDNAKNTVYLQMNSLKPEDTAVYYCAADGYTTYYSEFYYWGQATQVTVSS”, “low polyreactivity”. With “QVHLVESGGGLVQAGGSLRLSCAASGSTFGYYTMGWYRQAPGKERELVAAISGSGDSTYYADSVKGRFTISRDNAKNTVYLQMNSLKPEDTAVYYCAKRYYKRYNYWGQGTQVTVSS” the entry was “high polyreactivity”. Take “QVHLVESGGGLVQAGGSLRLSCAASGSTFKIYAMGWYRQAPGKERELVAAITRGGSTNYADSVKGRFTISRDNAKNTVYLQMNSLKPEDTAVYYCAASYWYRRYGTYTYDYWGQGTQVTVSS”: the “polyreactivity (PSR sort gate)” value is on record as “high polyreactivity”.

Turning to “QVHLVESGGGLVQAGGSLRLSCAASGSTFQRYAMGWDRQAPGKERELDAAITIRGTRTYYADSVKGRFTISRDNAKNTVYLQMNSLKPEDTAVYYCAATYYWYGHPSRRYDYWGQGTQVTVSS”, the “polyreactivity (PSR sort gate)” value was “high polyreactivity”. For the sequence “QVHLVESGGGLVQAGGSLRLSCAASGSTFRLYAMRWNRQAPGKERELVASITFSDSNTSYADSVKGRFTISRDNAKNTVYLQMNSLKPEDTAVYYCAKETSYENVVYTFDYDYWGQGTQVTVSS”, the “polyreactivity (PSR sort gate)” value was “low polyreactivity”.

“QVHLVESGGGLVQAGGSLRLSCAASGSTFTYYAMGWYRQAPGKERELVAAISRRGGSTYYADSVKGRFTISRDNAKNTVYLQMNSLKPEDTAVYYCNVVIYSYGCNGRYDFWGQGTQVTVSS”: the “polyreactivity (PSR sort gate)” value was “high polyreactivity”. In the case of “QVHLVESGGGLVQAGGSLRLSCAASGSTFVTNAMGWYRQAPGKERELVAAITSGAGTYYADSVKGRFTISRDNAKNTVYLQMNSLKPEDTAVYYCAARRYYSRGRYRFGYWGQGTQVTVSS”, the “polyreactivity (PSR sort gate)” value is reported as “high polyreactivity”. As for “QVHLVESGGGLVQAGGSLRLSCAASGSTFVTYAMGWYTQAPGKEREFVAAISSTGTGRTYYADSVKGRFTISRDNAKNTVYLQMNSLKPEDTAVYYCAADLYGTYDYCGQGTQVTVSS”, the “polyreactivity (PSR sort gate)” value is “low polyreactivity”. Consider “QVHLVESGGGLVQAGGSLRLSCAASGSTFYRYAMGWYRQAPGKEREFVASISKRGGSTYYADSVKGRFTISRDNAKNTVYLQMISLKPEETAVYYCAADPKFFSGSYLYGYWGQGTQVTVSS”, for which the “polyreactivity (PSR sort gate)” value is “high polyreactivity”.

“QVHLVESGGGLVQAGGSLRLSCAASGSTFYRYAMGWYRQAPGKERELVAAITRSGGSTYYADSVKGRFTISRDNAKNTVYLLMNSLKPEDTAVYYCAADRYYVYTFYYWGQGTQVTVSS”: the “polyreactivity (PSR sort gate)” value is on record as “high polyreactivity”.
